Data on 18 sequences can be found in the DeepSol protein solubility set.

The data set can be described thus: soluble on expression in E. coli; label from the status in PepcDB or PDB records.
In the case of “MSLRRLLQVFFFCPKQIYSFKLYQSLIFYNYTDAFFSVKIVSTTNFGGHIMSTTIIGFPRLGEFRELKFTTEKYFRKEISEEELLAAAKDLRAKHWNIVKEKGITEIPSNDFSHYDNFLDAAFLFNVVPASVQNLDLSDLERYFALGRGYQGEKGDVRALPMKKWFNTNYHYIVPKFEKDTQVKLAGHKIFDEFQEAKELGLNTRPVLVGPFTFLQLSDFEEGVKADDFVDSFVAAYQEVFAKLADLGATRIQLDEAALVKDLTAEEKALFLNLYNKLLADKKGLEVLFQTYFGDVRDVYADLVNLPVDAIGLDFVEGKKTLELVKGGFPADKTLYVGIVNGKNIWRNNYEKSLTVLEQIPAENIVLTSSCSLLHVPFTTANEEFEPALLNHFAFAVEKLDEIRDLDAIRNGQGSEALAANKELFATERVGENAELRARIAGLTDADYTRLPAFAEREAIQEEAFKLPALPTTTIGSFPQTKEVRAKRLAYRKGELSQKEYDAFLAETIDEWIKWQEDIDFDVLVHGEFERNDMVEYFGQNLSGYLFSKNGWVQSYGMRGVKPPIIWGDVTRLNPITVKWSSYAQSRTNKPVKGMLTGPVTILNWSFPREDISIKDSTLQIALAIKDEVLDLEAAGVKIIQIDEAALREKLPLRRSDWYEDYLDWAIPAFRLVHSTVAPDTQIHTHMCYSEFTDIIPAIDNMDADVISFEASRSNLEILDELKAKNFQTEVGPGVYDIHSPRVPNEGEIDNTIEAILAKVPSKKVWINPDCGLKTRGIPETKESLIRLVEAAKAAREKLEGHHHHHH”, the “soluble on expression in E. coli” value is recorded as “soluble”.
In the case of “MKKMHVESEFAPLRSVVLAQSQFCLPDKFDEADTTFLTEENARLTQNNEGRDLADFAPEQQVRWEKEKEVMQGVLESYGVEVFRPRLLTTYEKEHGKELGVGYSNFFSRDPFFTIGNLLIEGNLRFQHRRQEILPIRPIIQQWTQEAEGYYFAAPQPDISEGALSEAGPFIEGGDVLVLGKTIFVGYSGLASNLAGIQWLANMIGHFGYEVVPVRLHPHILHLDCALSLLREGLMIVCEEAFLDGLPAQLANWEKIHVTLQEAAYLVTNGLPLNEETYITDQSFTTLIPQIEAKGIKVEAIDYHVSRMLGGSFRCTTQALIRE”, the “soluble on expression in E. coli” value is on record as “not soluble”.
Regarding “MGMSSLRDLGLSEYEARAYRSLLETGPTTAKELSRASDVPMGRIYDVLNSLETYNLVRSQTASRPKKYVAVEPDTALDRLLEDKKRELQEKVGQYEEIVDDLSSQLESADPVEEPFWTAAVGPDNSLDLLLERLAAADDEIIMVGSAPARQVDILSGTERIVDELEAALERGVEVSLLVRPDLFESLPEEANREYYERLFHYDNYSARASPNIRTTFELLDGVEVCIEVPHPLGREETFGVIDMKDSDFTADISQAFEEHWAEAKPVGPP”, the “soluble on expression in E. coli” value is given as “not soluble”.
The entry for “GAMGMDEGDGEGNILPIMQSIMQNLLSKDVLYPSLKEITEKYPEWLQSHRESLPPEQFEKYQEQHSVMCKICEQFEAETPTDSETTQKARFEMVLDLMQQLQDLGHPPKELAGEMPPGLNFDLDAL” is “soluble”; for “WIVQKQKKWSSDPVGTQKNVFDLLIKKAQKTTFGKDHAFDSIQSHADYCRLVPVREYEGFKEYIELVKQGTQDVLWPGIPLYFAKTSGTTSGVKYIPITKDSIGYHINGAKDALLNYVHQTGKSEFLDKKLIFLSGSPIMEKKNGIYIGRLSGIVNHHVPGYLRGNQLPSFETNCVDDWESKLEKIVDETIDQDMSLISGIPPWVQMYFDRIEERTHKKIKDVFPSFSLLVYGGVNFSPYKRKLIESIGKEIDTVETYPASEGFIAFQDIPGQAGLLLLLNSGIFYEFIPVEEYGSANPTRLTIGEVKTDVNYALVMSTNAGLFAYSIGDTVKFVSTAPYRIVVTGRVKHFISAFGEHVIGEEVEQAMKNALLKHPEVSITEFTVAPQVTPEEGLPYHEWLIEFISMPADMDQFAHDLDQEMIQKNIYYKDLIVGNILRPLVITSISAGGF” it is “not soluble”; for “MGSDKIHHHHHHSCNEDDGAPYPSVRLEFLTAESGADGRLQTLVTDKGERLVVAEDRTESELLPNSSSRVVSNYEVLSSVGGRKEIRIYALANTVSPVPLPAGEFRNGLKFDPVDMLSIWMGRDYLNMTLSIRAQNARHTFHFIQESVERDAVTGKLKVHLMLYHDDGGDVEAYAKRAYVSVPLRQYTSDIGESVIIYFSFHTYDGEVQTYQFEYVPSHLTINY” it is “not soluble”.
The result for “MGSDKIHHHHHHMESTMKLATAPDAWGVWYADDPRQTPWERYLDEVRDSGFTATETGPWGYLPTDPSHLTDALGSRGLSVCGSALVHLLAPADAMETLRPRLEQTCGLLKAMKAEWVVLMDDSDLPLPGQSRALSPHDWASMIRNIKDAARYVTEEHGLSFVFHPHVGSGVETEAEVIRLLEETSEDSVGLCFDFGHHAYTGADAVAFMKRYADRIPYYHFKNVDPVLLAHIRQNNINFIEGFQSGVMCELDKGMVDFAEVRDFLATRGFDGYAVYEQDMYPCPPEKPFPIACHNRQVLRELGI” reads “not soluble”; that for “MKIAALYDIHGNYPALKEVLKQVKKLSPDLVVLGGDLIAGPMPLETLSLLKHVSTTFKTVGIMGNNDQDIVDIYAKKRVGLSRKATEQLTWIANQLSYKQVSFLRNLLPSISIGNYFFCHAVKNDNTTVFSPQQNKAYIETLFKGVQESYIICGHTHIQFELSLPNKKIINAGSIGMPFSNQFGAQWLWLDDNRIEYKRTIFNQQAAIQLISQTEYPFKNEFIANNLRSTISLSQGYSILNTLIRAQNAQHDLSLEHHHHHH”, “soluble”.
Regarding “MVFGFLKGVRRRPPLNRACPPIPESKSNESIMSHASRISEHQKAAAAAAATSETTTGDLVIENRNVVDVLHRLDANSNIALPPSSNIRKSKEKKAKMSSTPRSPLMSMANSVKSKLTKITHLGRSSNESSGSSSNIKTSQSFSGIRQPKQIPKRIDQNANRVIKSSSMEVPSTSKVCIPQDPTPLIDDKIEEISEAGLISKSEMAPPKPKEHVCVKLEEDVLVVTKEFDERYPGQKRSASPDVPMVEESQTMSEVDQLPSEQVAETFSEDNVNELDNNANQKTPGPVRRIIQETTTTTITTTTFDSPIPIIEKMEVERPEEAEDVIVIEAPEPVQPPIPSPKKERFTSPERYILLVKTPEALRKHRTLTIGEKDPTEVDTEEKIQYTRLETVKFKEVKEKVKYEEPVPKEKFILTMKTPEAIRRHHTFTIRDKSPEEMNKITKITKSQSDVHVSKRAAKKLVKQASEPERRDLFEEKEDVVPEPKFVIVMKTPECLRRHHTFTIGDRPKSPDYPYIEEGEITEPIATIGPPADRRKKEEAKERKKREWEEYETPPKEKFILTTTTPLAIRKYQTFVVEPKDEKTALPQSASADAVMLAKKGKVQRKNVTSSIQQLSLDEPITSPSRKPVSPEPRHLFVMGGRRSTTPQEDRKVPEPPRNLKLDTDRSQSDHAELLEERKSTMSGDLTSPEEEIPMDTNLTPTTEEVMEAVIVSRRIEGLMTSPIEEEPEGLTSSIRDLSIRSLAKETERPAPVFTPPSPPKENPFHVMTVPKSTLTSSSESAMPMTSSSSSIRAKPNQLPIKKTIQVVDPMHIVELKPEHKSKKEALAAKSLRNAGKMLTPSFLRKEKKGPKKSLYAKTTSSGRQHISEKKEK”, the “soluble on expression in E. coli” value was “not soluble”.
The entry for “MGSDKIHHHHHHMKWCSSMSDPKPCIICVAITGSVPTKAANPAVPITVAEQIESTHAAFEAGAAICHAHVRNDDETPSSDPEKFARLKEGVEGHCPGMIVQLSTGGRSGASKERGGMLPLRPDMASLSVGSNNFPTRVYENPPDLVDWLAAEMRTYDIKPEIEAFDLSHIHHAALMHQRGQLAGHPYVQFVMGVKNAMPADRETFDFYVATMTRLLPESEWCAAGIGPNQIVLNEWAIAAGGHARTGLEDNVRWDKQTLAPSNAALVERTAEICEKNGRPVATTAQAREILGLRT” is “not soluble”; for “MGSDKIHHHHHHMNRFIIADASKCIGCRTCEVACVVSHQEHQDCASLTPHTFQPRIHVIKGVNVSTATACRQCEDAPCANVCPNGAISRDKGFVHVMQERCIGCKTCVVACPYGAMEVVVRPVIRHSGAGLNVVAEKAEANKCDLCFHRESGPACMEVCPTHALVCVDRNKLEQMNIEKRRRTALAW” it is “not soluble”.
Turning to “GSHMASDLKNPYERIQAEAYDAMSGIQTEGTDDDGGGDNIGWINDGDWVKYERVHFERDASSIEVRVASDTPGGRIEIRTGSPTGTLLGDVQVPNTGGWQQWQTVTGNVQIQPGTYDVYLVFKGSPEYDLMNVNWFVFRANG”, the “soluble on expression in E. coli” value is listed as “soluble”.
As for “MSVEIESIEHELEESIASLRQAGVRITPQRQAILRYLISSHTHPTADEIYQALSPDFPNISVATIYNNLRVFKDIGIVKELTYGDSSSRFDFNTHNHYHIICEQCGKIVDFQYPQLNEIERLAQHMTDFDVTHHRMEIYGVCKECQDK”, the “soluble on expression in E. coli” value is recorded as “not soluble”.
The entry for “IAALSRDITPQQDGSVIVDASITIRHLNRMMGWSLPLIGPRTLSGLIIEHLGYIPPPDSCLVIDHYHIEILRVSDNMIRGVKMIKTN” is “not soluble”; for “SVADANGSSSSSFNFLIYGKTGWIGGLLGKLCEAQGITYTYGSGRLQDRQSIVADIESVKPSHVFNAAGVTGRPNVDWCESHKVETIRTNVAGTLTLADICREKGLVLINYATGCIFEYDSGHPLGSGIGFKEEDTPNFTGSFYSKTKAMVEELLKNYENVCTLRVRMPISSDLTNPRNFITKIARYEKVVDIPNSMTILDELLPISIEMAKRNLTGIYNFTNPGVVSHNEILEMYRDYIDPSFTWKNFTLEEQAKVIVAPRSNNELDATKLKTEFPELMSIKESLIKFVFEPNKKTEVKA” it is “soluble”.
The result for “MGSDKIHHHHHHMETLRILHTNDLHSHFEHFPKIGRYLKKAQADNSVDEVYTFDAGDFMDRSHPLTDATEGQANIKLMNGFKYTAVTIGNNEGISNPHWVLEHLFDHADFPTVLANLREEDESMPNWAIGHKILTTKKNTRIALIGLTAAYPMTYGPNHWHVKMLGSTMDKELAKINGQYDMLILITHIGLKMDRWLAKNYPQIDLIVGGHSHDLIVQGEKVDHTWITQTGKWGNYVGDIHVELEDHHVTKIVPNTVATASMPEEPEDESVIKGYYEKGKQLLSERKVAKLPEKFADDKIAAVQVSLDAIADFAKTDLAILSSGLFLTPFKSGILTQFDLQNALPHPMHVVRSTLKGSDLWRLVMEIEKNRHYLDHFPLQGMSFRGKIFGQMYYKGIKVDMRKRIVYVNGQEINPDSEYRIACLDHYVLVPFFPTLAIVGENEFLFPQFLREVVGDYLAKKYPLPARSEIND” reads “not soluble”; that for “MKVNPDFFPLTQMAQRFVDQLAQCRRLGLTVLEASEHHVLIELPYSTELIGYPDTGVIHGGVITTLMDTACGSAVVSAIFQKYQSLEISPTLDLRVDYMKPAQPHKSVYGFAECYKLSSNIAFTRAIAYQDSIDDPIAHAVGSFMRISPEMVGDAFRQALIGLEHHHHHH”, “soluble”; that for “MSLNTPVEFNLPDSIELEREEVEEDLLTSGDEILLSYSSYIPPKLHSMTSHLQLRVDFFVNLLQFTRANFIYKVSPQVKLKLLESYEILNCSLSLSSYLSSDTDLTTQWHRVLLSEEVTEEELMLHQLKRFPELFGKFLAEIDEPLRSSSDIKFKVAAADLVNCVIYHSCLERGESEYRCNQLNLDLTEVGDDLPWFINFSIPDSLNKILLHLFYSFEDGNVPDEYHDKLLEIIKSLYYMCKQSDVWYAVKGSNAYEAGYQGFNLNSTLSNHLTWIQILLKIGRSVDALNIADFYHDLSGLVETLSSFDYEKAHPLYEEYFTKYGYQFSKTLFTTVIEQGKINDLFSRFPSHHDDLVRFFDEYPQYGHVSWIGNIFDQQYNAAAEVLVSVSSPDAAKKLDLNQLQVRLSIAKLSALAEEPILNMDLLNTIQSGLDLIDSQKKAAELAGEHTSLSKRYLETESHYQSILEKLKTNIVLSEYELVGIYTVLDDVTAFAKALHFLSLIKTIPEDSRQFLVSMIWRKCILFNDWNHTSDDLSTALYATLLAFFKEEYYRAGIPLPHVPKLTAPISKDTLSEQLFAGVECGNLLLDGAEADTSALSAVQTDMESRIRFLIGSAHSEAGASCVVNYETNTVDEGHHHHHH”, “soluble”.
